This note sets out measurements from article PMC10673652, “PoWRKY71 is involved in Paeonia ostii resistance to drought stress by directly regulating light-harvesting chlorophyll a/b-binding 151 gene”.

Positions count from the first letter of the chain named.

This series concerns the target PoWRKY71 (Paeonia ostii, UniProt A0AB38Z7I8 1-311). Put plainly: EMSA; not stated in the material (EMSA as in Luan et al., ref. 58). Particulars: protein: recombinant, tags: His, SUMO (pET-SUMO), blunt. For orientation: A gel shift assay detects complexes by their altered migration in electrophoresis.

PoWRKY71, sequence (A0AB38Z7I8 entry or part of it): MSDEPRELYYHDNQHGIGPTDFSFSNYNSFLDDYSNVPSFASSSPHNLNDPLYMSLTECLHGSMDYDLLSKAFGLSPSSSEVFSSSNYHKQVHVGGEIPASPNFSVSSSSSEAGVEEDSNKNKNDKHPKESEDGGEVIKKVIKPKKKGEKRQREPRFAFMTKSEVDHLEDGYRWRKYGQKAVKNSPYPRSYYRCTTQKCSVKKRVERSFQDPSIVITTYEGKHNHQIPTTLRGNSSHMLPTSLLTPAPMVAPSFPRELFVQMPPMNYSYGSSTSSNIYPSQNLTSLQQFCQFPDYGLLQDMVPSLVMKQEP

B1: PoCAB151 promoter W-box probe (dsDNA)
DNA 1: GTGTTTCCTGCATTCGGTCAGCAACCAAATGACC
DNA 2: GGTCATTTGGTTGCTGACCGAATGCAGGAAACAC
Regarding B1, the binding result was “binds”.

B2: PoCAB151 promoter W-box mutant probe (dsDNA)
DNA 1: B1 DNA 1 with G17A, T18A, C19A
DNA 2: B1 DNA 2 with G16T, A17T, C18T
In the case of B2, under “label: biotin”, the binding result was “no binding”.
